From patent CN114685656A (鲁南制药集团股份有限公司, dated 2022)
Positions count from the first letter of the chain named.

B1: Kwar23 (antibody, V domains shown)
VH: EVQLQQSGAELVKPGASVKLSCTASGFNIKDYYIHWVQQRTEQGLEWIGRIDPEDGETKYAPKFQDKATITADTSSNTAYLHLSSLTSEDTAVYYCARWGAYWGQGTLVTVSS
VL: QIVLTQSPAIMSASPGEKVTLTCSASSSVSSSYLYWYQQKPGSSPKLWIYSTSNLASGVPARFSGSGSGTSYSLTISSMEAEDAASYFCHQWSSYPRTFGAGTKLELK
B2: 36D6 (antibody, V domains shown)
VH: EVQLQESGPELKKPGETVKISCKASGYTFTKYGMNWVKQAPGKGLKWLAWINTDTGEAKYSDDFKGRFAFSLETSASIVYLQINNLKNEDTATYFCARGESYSNYVRFVYWGQGTTVTVSS
VL: DIVMTQSHKFMSTSVGDRVSITCKASQDVNTAVAWYQQKAGHSPKLLIYWTSTRHTGVPDRFTGSGSGTDYTLTISSVQAEDLTLYYCQQHYSTPWTFGGGTKLEIK
notes: also called 抗SIRPα抗体36D6
B3: 40F3 (antibody, V domains shown)
VH: QVQLQQPGAELGKPGASVKLSCKASGYTFSSYYIYWLKQRPGQGLEWIGGINPSNDDTHLTEKFKSKATLIADRSSSTAYIQLSSLTSEDSAVYYCTRSYYANSWFAYWGQGTLVTVSA
VL: DIVLTQSPLSLPVSLGDQASISCRSSQTIVHSNGNTYLAWYLQKPGQSPKLLIYKVSNRFSGVPDRFSGSGSGTEFTLKISRVEAEDLGVYYCFQGSHVPYTFGGGTKLEIK
notes: also called 抗SIRPα抗体40F3
B4: 52B3 (antibody, V domains shown)
VH: EVQLQQSGAELVRSGASVKMSCKASDYTFTSYNLHWVKQTPGQGLEWIGYIYPGNGNTKYSQKFKGKATLTADTSSSTAYMQISSLTSEDSAVYFCTRNYDYYFYTMGYWGQGTTVTVSS
VL: DIVLTQSPKFMSTSVGDRVNITCKASQDVCTAVAWYQQKPGQSPKLLIYSASYRYTGVPDRFTGSGSRTDFTFTISSVQAEDLAVYYCQQHYSTPLTFGAGTKLELK
notes: also called 抗SIRPα抗体52B3
B5: 57B10 (antibody, V domains shown)
VH: B4 VH with Q3K, Q6E, D26G, L34M, V37I, N57A, K59N, S61N, T97A, G108D
VL: B4 VL with P8T, N20S, C30S, Y86F, Y92F, T94A
notes: also called 抗SIRPα抗体57B10
B6: 36G4 (antibody, V domains shown)
VH: EVQLVESGGGLVQPGGSLKLSCAASGFTFSNYGMSWVRQTPDKRLELVATINSNGGDTSYPDSVRGRFTISRDNAKNTLYLQMSSLKSEDTAMYYCTRGGWSWFAYWGQGTLVTVSA
VL: DIVLTQSPTSLAVSLGQRATISCRASESADSYGNSYMNWYQQKPGQPPKLLIYLASNLESGVPARFSGSGSRTDFTLTIDPVEADDAATYYCQQINEDPYTFGGGTKLEIK
notes: also called 抗SIRPα抗体36G4

How the values were obtained:
[1] = target: 重组hu-SIRPα-his (human, UniProt P78324 31-370, limits assumed); assay: ELISA on coated hu-SIRPα-his (0.5 μg/ml), anti-mouse IgG-HRP
[2] = target: T1, 重组hSIRPα (human, UniProt P78324 31-370, limits assumed); assay: competition ELISA on coated hSIRPα (1 μg/ml) against biotinylated CD47-Fc (6 μg/ml)
T1 construct: also called SIRPα蛋白; SIRPα抗原

[3] = target: 人SIRPα受体 on CHO cells (CHO-huSIRPα) (human) (UniProt P78324); assay: flow cytometry on CHO-huSIRPα cells, PE anti-mouse IgG Fc
[4] = target: 猴SIRPα受体 on CHO cells (CHO-cyno-SIRPα) (monkey (cyno)); assay: flow cytometry on CHO-cyno-SIRPα cells, PE anti-mouse IgG Fc
[5] = target: T2, 重组hSIRPg-his (human, UniProt Q9P1W8 29-360, limits assumed); assay: competition ELISA on coated hSIRPg-his (1 μg/ml) against biotinylated CD47-Fc (6 μg/ml)
T2 construct: also called sirp-γ

[6] = target: 人SIRPα受体 on CHO cells (CHO-huSIRPα) (human) (UniProt P78324); assay: flow cytometry, hybridoma supernatant on CHO-huSIRPα cells, PE anti-mouse IgG Fc
[7] = target: 猴SIRPα受体 on CHO cells (CHO-cyno-SIRPα) (monkey (cyno)); assay: flow cytometry, hybridoma supernatant on CHO-cyno-SIRPα cells, PE anti-mouse IgG Fc
[8] = target: T2, 重组hSIRPg-his; assay: ELISA on coated hSIRPg-his (1 μg/ml), anti-mouse IgG-HRP
[9] = target: T1, 重组hSIRPα; assay: SPR (Biacore T200), antibody captured on Protein A chip, SIRPα protein as analyte, 1:1 Langmuir fit

Row | Molecule | EC50 [1] | IC50 [2] | MFI [3] | MFI [4] | IC50 [5] | MFI [6] | MFI [7] | binding result [8] | Kd [9]
1 | SE5A5 (antibody) | 0.0225 µg/mL | 0.121 µg/mL | – | – | – | – | – | – | –
2 | mIgG (antibody) | – | – | 86.6 MFI | 76.4 MFI | – | – | – | – | –
3 | B1 | – | – | – | – | 0.0394 µg/mL | – | – | – | –
4 | B2 | 0.0192 µg/mL | 0.248 µg/mL | – | – | – | 9270 MFI | 5000 MFI | – | –
5 | B3 | 0.00587 µg/mL | 0.0653 µg/mL | – | – | – | 17200 MFI | 7570 MFI | no binding | ~0.01 nM
6 | B4 | 0.00736 µg/mL | 0.121 µg/mL | – | – | 0.196 µg/mL | 13600 MFI | 6980 MFI | – | –
7 | B5 | 0.00546 µg/mL | 0.0633 µg/mL | – | – | – | 18500 MFI | 9230 MFI | – | ~0.01 nM
8 | B6 | 0.0235 µg/mL | 0.15 µg/mL | – | – | – | 9520 MFI | 4560 MFI | – | –
